Source: patent US20050037969A1 (ARBOR VITA, published 2005)
Ends that are not written are not given here. * marks the point of attachment. Biotin = O=C1N[C@H]2[C@H](CS[C@H]2CCCCC(=O)*)N1

T1: K858 PDZ-GST fusion protein (Homo sapiens (Human), UniProt Q8WWI1 1038-1131)
T1 construct: Order of GST and PDZ part and limits not seen in the excerpts
T1 sequence: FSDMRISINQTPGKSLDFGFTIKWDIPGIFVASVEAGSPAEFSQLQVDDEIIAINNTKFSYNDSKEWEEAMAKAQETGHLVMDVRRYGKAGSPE

T2: GST-AF6 PDZ domain fusion protein (Homo sapiens (Human), UniProt P55196 1001-1093)
T2 construct: also called af-6 protein; not shown: glutathione S-transferase encoded by vector pGEX-3X (Pharmacia)
T2 sequence: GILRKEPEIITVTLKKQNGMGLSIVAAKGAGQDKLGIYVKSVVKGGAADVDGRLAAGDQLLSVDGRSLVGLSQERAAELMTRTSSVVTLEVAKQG

T3: GST-cytohesin binding protein PDZ domain fusion protein (Homo sapiens (Human), UniProt O60759 74-165)
T3 construct: also called CBP; not shown: glutathione S-transferase encoded by vector pGEX-3X (Pharmacia)
T3 sequence: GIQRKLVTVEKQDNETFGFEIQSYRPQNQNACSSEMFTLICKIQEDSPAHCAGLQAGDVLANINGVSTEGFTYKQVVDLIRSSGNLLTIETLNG

T4: GST-KIAA0303 PDZ domain fusion protein (Homo sapiens (Human), UniProt O15021 1138-1228)
T4 construct: also called K303; not shown: glutathione S-transferase encoded by vector pGEX-3X (Pharmacia)
T4 sequence: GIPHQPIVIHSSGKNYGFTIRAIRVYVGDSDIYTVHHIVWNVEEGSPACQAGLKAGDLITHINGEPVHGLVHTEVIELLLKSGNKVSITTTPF

T5: SP short PDZ-GST fusion protein (Homo sapiens (Human), UniProt O43464 350-435)
T5 construct: The label SP short is not explained in the excerpts
T5 sequence: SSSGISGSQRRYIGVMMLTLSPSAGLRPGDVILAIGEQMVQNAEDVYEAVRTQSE

T6: ConEn PDZ-GST fusion protein (Homo sapiens (Human), UniProt Q969H4 193-287)
T6 construct: The label ConEn is not explained in the excerpts
T6 sequence: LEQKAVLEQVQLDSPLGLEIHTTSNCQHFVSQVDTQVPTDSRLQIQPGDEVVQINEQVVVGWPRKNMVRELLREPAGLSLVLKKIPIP

T7: GST-RGS12 PDZ domain fusion protein (human, UniProt O14924 17-85)
T7 construct: also called human regulator of G-protein signalling 12; not shown: glutathione S-transferase encoded by vector pGEX-3X (Pharmacia)
T7 sequence: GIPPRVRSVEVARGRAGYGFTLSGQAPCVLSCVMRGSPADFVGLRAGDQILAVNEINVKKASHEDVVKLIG

T8: GST-TAX-IP40 PDZ domain fusion protein (human, UniProt Q6B4M5 150-252 (rat entry))
T8 construct: also called TAX40; not shown: glutathione S-transferase encoded by vector pGEX-3X (Pharmacia)
T8 sequence: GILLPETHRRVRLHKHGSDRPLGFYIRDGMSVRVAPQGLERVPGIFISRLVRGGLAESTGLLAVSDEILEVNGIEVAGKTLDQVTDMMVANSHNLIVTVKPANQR

T9: GST-PTN-4 PDZ domain fusion protein (Homo sapiens (Human), UniProt P29074 517-605)
T9 construct: also called protein-tyrosine phosphatase meg1; not shown: glutathione S-transferase encoded by vector pGEX-3X (Pharmacia)
T9 sequence: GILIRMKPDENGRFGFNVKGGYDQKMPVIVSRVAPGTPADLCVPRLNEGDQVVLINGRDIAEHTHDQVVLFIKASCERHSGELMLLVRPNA

T10: GST-prIL16 fusion protein (PDZ domains 1-2) (Homo sapiens (Human), UniProt Q14005 1111-1324)
T10 construct: also called putative interleukin 16 precursor; not shown: glutathione S-transferase encoded by vector pGEX-3X (Pharmacia)
T10 sequence: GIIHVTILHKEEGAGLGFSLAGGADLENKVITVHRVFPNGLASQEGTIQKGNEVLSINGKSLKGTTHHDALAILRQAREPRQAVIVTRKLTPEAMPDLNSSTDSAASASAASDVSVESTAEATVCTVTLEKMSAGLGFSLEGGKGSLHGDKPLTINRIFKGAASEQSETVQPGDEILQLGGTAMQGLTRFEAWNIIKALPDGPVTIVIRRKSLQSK

T11: GST-MPP1 PDZ domain fusion protein (Homo sapiens (Human), UniProt Q00013 67-152)
T11 construct: also called p55; 55 Kd erythrocyte membrane protein; not shown: glutathione S-transferase encoded by vector pGEX-3X (Pharmacia)
T11 sequence: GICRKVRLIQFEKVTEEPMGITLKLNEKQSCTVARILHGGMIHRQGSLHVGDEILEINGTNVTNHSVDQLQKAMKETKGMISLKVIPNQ

T12: GST-TAX-IP2 PDZ domain fusion protein (human, UniProt O14908 129-216)
T12 construct: also called TAX-1P2; TAX2; not shown: glutathione S-transferase encoded by vector pGEX-3X (Pharmacia)
T12 chain: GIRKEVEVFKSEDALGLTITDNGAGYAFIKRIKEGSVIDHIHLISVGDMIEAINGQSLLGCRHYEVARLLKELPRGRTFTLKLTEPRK


Biological target: T13, GST-TIAM1 PDZ domain fusion protein (Homo sapiens (Human), UniProt Q13009 845-931)
T13 construct: also called TLAM1; T-lymphoma invasion and metastasis inducing protein 1; not shown: glutathione S-transferase encoded by vector pGEX-3X (Pharmacia)
T13 sequence (Q13009 other isoform, or with tags, fused parts or gaps): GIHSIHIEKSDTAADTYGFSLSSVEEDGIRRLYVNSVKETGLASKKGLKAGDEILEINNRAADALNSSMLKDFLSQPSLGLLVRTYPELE
Experiment: A/G assays

binding result | Binder
no binding | Biotin-SPQPDSTDNDDYDDISAA [CD6 C-terminal peptide AA6L, biotinylated]
no binding | Biotin-TSGTGHNQTRALRASESGI (also called CD97 (CD55L)) [CD97 C-terminal peptide AA14L, biotinylated]

Biological target: T14, NSP PDZ-GST fusion protein (Homo sapiens (Human), UniProt Q92743 370-466)
T14 construct: The label NSP is not explained in the excerpts
T14 sequence (Q92743 other isoform, or with tags, fused parts or gaps limits assumed): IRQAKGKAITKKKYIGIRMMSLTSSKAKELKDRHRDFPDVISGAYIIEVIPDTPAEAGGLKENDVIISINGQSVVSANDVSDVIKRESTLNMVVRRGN
Experiment: A/G assays

binding result | Binder
no binding | Biotin-SPQPDSTDNDDYDDISAA [CD6 C-terminal peptide AA6L, biotinylated]
no binding | Biotin-TSGTGHNQTRALRASESGI (also called CD97 (CD55L)) [CD97 C-terminal peptide AA14L, biotinylated]

Biological target: T1, K858 PDZ-GST fusion protein
Experiment: A/G assays

binding result | Binder
no binding | Biotin-SPQPDSTDNDDYDDISAA [CD6 C-terminal peptide AA6L, biotinylated]
no binding | Biotin-TSGTGHNQTRALRASESGI (also called CD97 (CD55L)) [CD97 C-terminal peptide AA14L, biotinylated]

Biological target: T2, GST-AF6 PDZ domain fusion protein
Experiment: A/G assays

binding result | Binder
no binding | Biotin-SPQPDSTDNDDYDDISAA [CD6 C-terminal peptide AA6L, biotinylated]
no binding | Biotin-TSGTGHNQTRALRASESGI (also called CD97 (CD55L)) [CD97 C-terminal peptide AA14L, biotinylated]

Biological target: T3, GST-cytohesin binding protein PDZ …
Experiment: A/G assays

binding result | Binder
no binding | Biotin-SPQPDSTDNDDYDDISAA [CD6 C-terminal peptide AA6L, biotinylated]
no binding | Biotin-TSGTGHNQTRALRASESGI (also called CD97 (CD55L)) [CD97 C-terminal peptide AA14L, biotinylated]

Biological target: T4, GST-KIAA0303 PDZ domain fusion protein
Experiment: A/G assays

binding result | Binder
no binding | Biotin-SPQPDSTDNDDYDDISAA [CD6 C-terminal peptide AA6L, biotinylated]
no binding | Biotin-TSGTGHNQTRALRASESGI (also called CD97 (CD55L)) [CD97 C-terminal peptide AA14L, biotinylated]

Biological target: T5, SP short PDZ-GST fusion protein
Experiment: A/G assays

binding result | Binder
no binding | Biotin-SPQPDSTDNDDYDDISAA [CD6 C-terminal peptide AA6L, biotinylated]
no binding | Biotin-TSGTGHNQTRALRASESGI (also called CD97 (CD55L)) [CD97 C-terminal peptide AA14L, biotinylated]

Biological target: T6, ConEn PDZ-GST fusion protein
Experiment: A/G assays

binding result | Binder
no binding | Biotin-SPQPDSTDNDDYDDISAA [CD6 C-terminal peptide AA6L, biotinylated]
no binding | Biotin-TSGTGHNQTRALRASESGI (also called CD97 (CD55L)) [CD97 C-terminal peptide AA14L, biotinylated]

Biological target: T7, GST-RGS12 PDZ domain fusion protein
Experiment: A/G assays

binding result | Binder
no binding | Biotin-SPQPDSTDNDDYDDISAA [CD6 C-terminal peptide AA6L, biotinylated]
no binding | Biotin-TSGTGHNQTRALRASESGI (also called CD97 (CD55L)) [CD97 C-terminal peptide AA14L, biotinylated]

Biological target: T15, PICK1 PDZ-GST fusion protein (Bos taurus (Bovine), UniProt Q2T9M1 17-105)
T15 construct: Order of GST and PDZ part and limits not seen in the excerpts
T15 sequence (Q2T9M1 other isoform, or with tags, fused parts or gaps limits assumed): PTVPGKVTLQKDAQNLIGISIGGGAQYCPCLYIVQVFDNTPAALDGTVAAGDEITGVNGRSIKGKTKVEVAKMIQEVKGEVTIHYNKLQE
Experiment: A/G assays

binding result | Binder
no binding | Biotin-SPQPDSTDNDDYDDISAA [CD6 C-terminal peptide AA6L, biotinylated]
no binding | Biotin-TSGTGHNQTRALRASESGI (also called CD97 (CD55L)) [CD97 C-terminal peptide AA14L, biotinylated]

Biological target: T8, GST-TAX-IP40 PDZ domain fusion protein
Experiment: A/G assays

binding result | Binder
no binding | Biotin-SPQPDSTDNDDYDDISAA [CD6 C-terminal peptide AA6L, biotinylated]
no binding | Biotin-TSGTGHNQTRALRASESGI (also called CD97 (CD55L)) [CD97 C-terminal peptide AA14L, biotinylated]

Biological target: T9, GST-PTN-4 PDZ domain fusion protein
Experiment: A/G assays

binding result | Binder
no binding | Biotin-SPQPDSTDNDDYDDISAA [CD6 C-terminal peptide AA6L, biotinylated]
no binding | Biotin-TSGTGHNQTRALRASESGI (also called CD97 (CD55L)) [CD97 C-terminal peptide AA14L, biotinylated]

Biological target: T10, GST-prIL16 fusion protein (PDZ domains …)
Experiment: A/G assays

binding result | Binder
no binding | Biotin-SPQPDSTDNDDYDDISAA [CD6 C-terminal peptide AA6L, biotinylated]
no binding | Biotin-TSGTGHNQTRALRASESGI (also called CD97 (CD55L)) [CD97 C-terminal peptide AA14L, biotinylated]

Biological target: T16, NOS1 PDZ-GST fusion protein (Homo sapiens (Human), UniProt P29475 11-100)
T16 construct: Order of GST and PDZ part and limits not seen in the excerpts
T16 sequence (P29475 11-100 limits assumed): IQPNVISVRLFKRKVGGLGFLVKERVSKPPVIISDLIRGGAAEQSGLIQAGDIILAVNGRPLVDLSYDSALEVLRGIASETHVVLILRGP
Experiment: A/G assays

binding result | Binder
no binding | Biotin-SPQPDSTDNDDYDDISAA [CD6 C-terminal peptide AA6L, biotinylated]
no binding | Biotin-TSGTGHNQTRALRASESGI (also called CD97 (CD55L)) [CD97 C-terminal peptide AA14L, biotinylated]

Biological target: T11, GST-MPP1 PDZ domain fusion protein
Experiment: A/G assays

binding result | Binder
no binding | Biotin-SPQPDSTDNDDYDDISAA [CD6 C-terminal peptide AA6L, biotinylated]
no binding | Biotin-TSGTGHNQTRALRASESGI (also called CD97 (CD55L)) [CD97 C-terminal peptide AA14L, biotinylated]

Biological target: T12, GST-TAX-IP2 PDZ domain fusion protein
Experiment: A/G assays

binding result | Binder
no binding | Biotin-SPQPDSTDNDDYDDISAA [CD6 C-terminal peptide AA6L, biotinylated]
no binding | Biotin-TSGTGHNQTRALRASESGI (also called CD97 (CD55L)) [CD97 C-terminal peptide AA14L, biotinylated]
